We go through 1 substance from paper PMC4302019.

The test deals with SibV (predicted extradiol dioxygenase of sibiromycin biosynthesis), holo form reconstituted with Fe2+ (Streptosporangium sibiricum). Description: SEC. (Size exclusion chromatography separates by hydrodynamic size, large species first.)

Usually stoichiometry N stands for the number of molecules, sites or subunits per partner or assembly. Consider “SibV (predicted extradiol dioxygenase of sibiromycin biosynthesis), holo form reconstituted with Fe2+ (enzyme)”, for which the stoichiometry N was 2.
